In patent US20140315822A1 (INSTITUT PASTEUR, published 2014):
Where two headings read alike, the source gives them in different places.

B1: PDZ domain of the human MAST2 protein (other)
chain: MRPPIIIHRAGKKYGFTLRAIRVYMGDSDVYTVHHMVWHVEDGGPASEAGLRQGDLITHVNGEPVHGLVHTEVVELILKSGNKVAISTTPLEN
B2: PDZ domain of the human PTPN4 protein (other)
chain: SSPEKPTPNGGIPHDNLVLIRMKPDENGRFGFNVKGGYDQKMPVIVSRVAPGTPADLCVPRLNEGDQVVLINGRDIAEHTHDQVVLFIKASCERHSGELMLLVRPN
notes: domain: PDZ domain

Columns and labels:
[1] = biological target: VIR13 (Neurovita 1) (rabies virus)
[2] = biological target: VIR13 (Neurovita 1) (rabies virus); assay: method not restated in the table; ITC per paragraph 50

Binder	Kd [1] [nM]	Kd [2] [µM]
B1	1260	–
B2	–	560
